Usually stoichiometry N stands for a count of units in the complex or per binding partner.

The results in this text go back to paper PMC8070244, “The MarR-Type Regulator PA3458 Is Involved in Osmoadaptation Control in Pseudomonas aeruginosa” (International Journal of Molecular Sciences, 2021).

This data set concerns the molecule itself. The data set is described as follows: SEC-MALS; 100 uL of 1 mg/ml sample on Superdex 200 Increase 10/300 in LEW buffer (50 mM NaH2PO4, 300 mM NaCl pH 8), room temperature, 0.5 mL/min.

B1: PA3458-His6 (natural protein, Pseudomonas aeruginosa PAO1161, UniProt Q9HYE8 1-157, looked up)
chain: MVESNKTAADTYSLAIFRAIRRLQQAAEIHSKRLSRYGGLTPLQLLILHVLAVEGELTATQLAKLVSLSQASLSGVLDRLEGRGLLYRRRDEQDRRKSWLHLDPAGHEALAEAPPLLPEYVIERFAALPEWERHGLLAALLRAADLFGLPEEDVEEE
notes: PA3458, MarR-type transcriptional regulator of Pseudomonas aeruginosa PAO1161 (locus D3C65_07830; PAO1 ortholog PA3458), 157 residues (17.6 kDa); the gene was amplified with primers 13#/14# (forward primer begins at the ATG; 483 bp fragment) and cloned NcoI/HindIII in pET28a; it says that the gene (157 codons) was cloned as a PA3458-his6 fusion, with the forward primer starting at the ATG; Linker …
As to B1, the “stoichiometry N” value amounted to 4.
